We go through 48 molecules from patent US20150166606A1 (RA PHARMACEUTICALS, published 2015).

Numbered stars: 1 amine (or outer) side, 2 acyl side, 3 side chain; on linkers, the order of the positions; unused ones are H or OH. Bridge positions count the residues as written; N and C are the ends. Square brackets hold non-standard residues; d marks the D form. Primed or numbered codes have the meaning given here. Ends that are not written are not given here. * marks the point of attachment. N‑ω hexylcarbamate = hexyl carbamate on the ω-nitrogen of the arginine side chain, CCCCCCOC(=O)*; mXylyl = xylyl linker from dibromoxylene joining the two cysteines; mXylyl″ = dibromoxylene linker (meta) joining the cysteines; 4‑BZA = 2-amino-3-(4-carbamimidoylphenyl)propanoic acid; des‑NH2 = missing amino-terminal amine group; pXylylene = c1cc(C[*:2])ccc1C[*:1]; NMeR = CN[C@@H](CCCNC(=N)N)C(=O)O; BODIPY‑TMR = fluorescent label; Phg(2-OMe)′ = not defined here; dPhg = N[C@@H](C(=O)O)c1ccccc1; Chg = N[C@H](C(=O)O)C1CCCCC1; Phg = N[C@H](C(=O)O)c1ccccc1; Tle = CC(C)(C)[C@H](N)C(=O)O; αMeP = C[C@@]1(C(=O)O)CCCN1; NMeS = CN[C@@H](CO)C(=O)O; 3‑BZA = not defined here; Heptanoyl = CCCCCCC(=O)*; Orn = NCCC[C@H](N)C(=O)O; Ac5c = NC1(C(=O)O)CCCC1; Aze = O=C(O)[C@@H]1CCN1; Thp = NC1(C(=O)O)CCOCC1; Ac4c = NC1(C(=O)O)CCC1; Ac3c = NC1(C(=O)O)CC1; Aib = CC(C)(N)C(=O)O; AEA = NCCOCC(=O)O; Mpa = O=C(O)CCS Bounds are passed on as bounds.

This assay has as its target Activated human plasma kallikrein (Enzyme Research Laboratories, HPKa 1303) (human, UniProt P03952 20-638). The assay can be described thus: cell-based or functional assay.

Sequence of Activated human plasma kallikrein (Enzyme Research Laboratories, HPKa 1303) (P03952 20-638 limits assumed): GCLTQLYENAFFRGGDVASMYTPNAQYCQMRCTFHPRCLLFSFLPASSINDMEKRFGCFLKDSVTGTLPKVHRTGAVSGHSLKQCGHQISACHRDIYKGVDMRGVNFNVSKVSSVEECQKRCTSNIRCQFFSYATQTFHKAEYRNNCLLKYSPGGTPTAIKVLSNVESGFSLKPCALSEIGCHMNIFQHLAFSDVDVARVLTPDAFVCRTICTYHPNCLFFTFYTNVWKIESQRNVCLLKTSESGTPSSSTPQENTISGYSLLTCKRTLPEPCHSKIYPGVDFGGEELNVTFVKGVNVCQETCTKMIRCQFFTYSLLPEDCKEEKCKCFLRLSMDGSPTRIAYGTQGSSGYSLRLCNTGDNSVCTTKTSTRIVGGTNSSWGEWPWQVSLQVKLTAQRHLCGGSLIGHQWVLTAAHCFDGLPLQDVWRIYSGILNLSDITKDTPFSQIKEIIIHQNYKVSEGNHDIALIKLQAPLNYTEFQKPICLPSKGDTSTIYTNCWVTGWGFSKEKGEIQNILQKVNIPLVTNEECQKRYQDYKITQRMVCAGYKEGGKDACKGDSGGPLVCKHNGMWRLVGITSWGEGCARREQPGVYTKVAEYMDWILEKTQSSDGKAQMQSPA

B1: R2196 (peptide)
peptide: {des‑NH2}-CP[Chg]CR-{(S)‑2,2‑dimethyl‑1‑(pyridin-2-yl)propan‑1‑amine}
modifications: linker 1-4 via mXylyl
Turning to B1, the “Avg. IC50” value amounted to 35.6 nM.

B2: R2183 (peptide)
peptide: {des‑NH2}-CP[Chg]CRV-OH
modifications: linker 1-4 via mXylyl
B2: the “Avg. IC50” value is greater than 3500 nM.

B3: R2160 (peptide)
peptide: Ac-[Chg]CRVPC-NH2
modifications: linker 2-6 via mXylyl
Regarding B3, the “Avg. IC50” value was greater than 100000 nM.

B4: R2180 (peptide)
peptide: {des‑NH2}-C[αMeP][Chg]CR[Tle]-NH2
modifications: linker 1-4 via mXylyl
B4: the “Avg. IC50” value was 6.8 nM.

B5: R2159 (peptide)
peptide: Ac-[Chg]CRVAC-NH2
modifications: linker 2-6 via mXylyl
As to B5, the “Avg. IC50” value is greater than 20100 nM.

B6: R2172 (peptide)
peptide: [Mpa]ESIC[Orn]V-NH2
modifications: linker 1-5 via mXylyl
For B6, the “Avg. IC50” value is greater than 100000 nM.

B7: R2178 (peptide)
peptide: CXAGCRV
modifications: [mXylyl(1,5)](des-NH2)C-(Cyclo-L)-A-Chg-CR-V-NHCH3
Regarding B7, the “Avg. IC50” value was 3.2 nM.

B8: R2171 (peptide)
peptide: CESICRV-NH2
modifications: linker 1-5 via mXylyl″; not fully specified (residues 1, 6, N-terminus); printed as [mXylyl(1,5)](des-NH2)C-ESIC-r-V-NH2
Consider B8, for which the “Avg. IC50” value was greater than 100000 nM.

B9: R2166 (peptide)
peptide: [Mpa][Thp]A[Chg]C[4‑BZA]V-NH2
modifications: linker 1-5 via mXylyl
For the molecule B9, the “Avg. IC50” value was determined as 310 nM.

B10: R2175 (peptide)
peptide: [Mpa][Ac5c]A[Chg]CRV-OH
modifications: linker 1-5 via mXylyl
With B10, the “Avg. IC50” value is 379 nM.

B11: R2194 (peptide)
peptide: [Mpa][Aze][Chg]CR[Tle]-NH2
modifications: linker 1-4 via mXylyl
As to B11, the “Avg. IC50” value was determined as 127 nM.

B12: R2167 (peptide)
peptide: {des‑NH2}-CP[Chg]CR[Tle]-NH2
modifications: linker 1-4 via mXylyl
As to B12, the “Avg. IC50” value came to 10.7 nM.

B13: R2170 (peptide)
peptide: [Mpa][Ac5c]A[Chg]CR[Tle]LRY-NH2
modifications: linker 1-5 via mXylyl
Turning to B13, the “Avg. IC50” value was found to be 2.1 nM.

B14: R2181 (peptide)
peptide: [Mpa][Ac4c][Chg]CR[Tle]-NH2
modifications: linker 1-4 via mXylyl
With B14, the “Avg. IC50” value was determined as 18.5 nM.

B15: R2149 (peptide)
peptide: {des‑NH2}-C[Ac5c]A[dPhg]CR[Tle]-NH2
modifications: linker 1-5 via mXylyl
With B15, the “Avg. IC50” value was determined as 177 nM.

B16: R2190 (peptide)
peptide: [Mpa][Aib]A[Chg]CR[Tle]LRYSE-NH2
modifications: linker 1-5 via mXylyl
B16: the “Avg. IC50” value turned out to be 0.511 nM.

B17: R2174 (peptide)
peptide: [Mpa][Ac5c][Chg]CK[Tle]-NH2
modifications: linker 1-4 via mXylyl
With B17, the “Avg. IC50” value is 870 nM.

B18: R2156 (peptide)
peptide: [Mpa]SICRV-NH2
modifications: linker 1-4 via pXylylene
SMILES: CC[C@H](C)[C@@H]1NC(=O)[C@H](CO)NC(=O)CCSCc2ccc(cc2)CSC[C@@H](C(=O)N[C@@H](CCCNC(=N)N)C(=O)N[C@H](C(N)=O)C(C)C)NC1=O
As to B18, the “Avg. IC50” value was found to be 1530 nM.

B19: R2193 (peptide)
peptide: {BODIPY‑TMR}-MCESICRV-NH2
modifications: linker 2-6 via mXylyl
As for B19, the “Avg. IC50” value was 205 nM.

B20: R2185 (peptide)
peptide: [Mpa][Thp]A[Chg]C[4‑BZA](N‑hexylcarbamate)V-NH2
modifications: linker 1-5 via mXylyl
On to B20, for which the “Avg. IC50” value was greater than 100000 nM.

B21: R2154 (peptide)
peptide: XSICRV
modifications: not fully specified; [mXylyl(1,4)](2-SAc)-SICRV-NH2
As to B21, the “Avg. IC50” value is greater than 7930 nM.

B22: R2148 (peptide)
peptide: Heptanoyl-C[dA][NMeS][Chg]CR[Tle]-NH2
modifications: linker 1-5 via mXylyl
With B22, the “Avg. IC50” value worked out at 28.8 nM.

B23: R2186 (peptide)
peptide: {des‑NH2}-CP[Chg]CR(N‑ω hexylcarbamate)[Tle]-NH2
modifications: linker 1-4 via mXylyl
With B23, the “Avg. IC50” value is greater than 100000 nM.

B24: R2188 (peptide)
peptide: {des‑NH2}-CP[Phg]CR[Tle]-NH2
modifications: linker 1-4 via mXylyl
Consider B24, for which the “Avg. IC50” value amounted to 3.4 nM.

B25: R2195 (peptide)
peptide: {des‑NH2}-CP[Chg]CR-OH
modifications: linker 1-4 via mXylyl
Regarding B25, the “Avg. IC50” value is greater than 175000 nM.

B26: R2176 (peptide)
peptide: [Mpa][Aib][Chg]CR[Tle]-NH2
modifications: linker 1-4 via mXylyl
As to B26, the “Avg. IC50” value was 15.2 nM.

B27: R2158 (peptide)
peptide: [Mpa][Aib]A[Chg]CR[Tle]LRYC-NH2
modifications: linker 1-5-11 via 1,3,5‑Xylyl
Regarding B27, the “Avg. IC50” value was determined as 2340 nM.

B28: R2150 (peptide)
peptide: {des‑NH2}-C[Ac5c]A[Phg]CR[Tle]-NH2
modifications: linker 1-5 via mXylyl
For B28, the “Avg. IC50” value is 0.764 nM.

B29: R2151 (peptide)
peptide: {des‑NH2}-C[AEA][Phg]CR[Tle]-NH2
modifications: linker 1-4 via mXylyl
With B29, the “Avg. IC50” value was found to be 1940 nM.

B30: R2191 (peptide)
peptide: [Mpa][Aib]A[Chg]CR[Tle]LRYSE(PEG 40 kDa)-NH2
modifications: linker 1-5 via mXylyl
B30: the “Avg. IC50” value came out at 5.5 nM.

B31: R2182 (peptide)
peptide: [Mpa][Thp][Chg]CR[Tle]-NH2
modifications: linker 1-4 via mXylyl
B31: the “Avg. IC50” value was found to be 13.5 nM.

B32: R2164 (peptide)
peptide: {des‑NH2}-CS[Chg]CR[Tle]-NH2
modifications: linker 1-4 via mXylyl
Turning to B32, the “Avg. IC50” value worked out at 10.1 nM.

B33: R2157 (peptide)
peptide: [Mpa][Aib]A[Chg]CR[Tle]PC-NH2
modifications: linker 1-5-9 via 1,3,5‑Xylyl
B33: the “Avg. IC50” value is greater than 14300 nM.

B34: R2192 (peptide)
peptide: {des‑NH2}-CP[αMePhg]CR[Tle]-NH2
modifications: linker 1-4 via mXylyl
As to B34, the “Avg. IC50” value is 851 nM.

B35: R2184 (peptide)
peptide: {des‑NH2}-CP[Chg]CRV-NHMe
modifications: linker 1-4 via mXylyl
Turning to B35, the “Avg. IC50” value was found to be 15.7 nM.

B36: R2162 (peptide)
peptide: [Mpa][Aib]A[Chg]CR-{2‑amino‑3,3‑dimethylbutan‑1‑ol}
modifications: linker 1-5 via mXylyl
As for B36, the “Avg. IC50” value came out at 466 nM.

B37: R2165 (peptide)
peptide: {des‑NH2}-C[NMeS][Chg]CR[Tle]-NH2
modifications: linker 1-4 via mXylyl
For B37, the “Avg. IC50” value is 82.1 nM.

B38: R2189 (peptide)
peptide: {des‑NH2}-CP[Phg(2-OMe)′]CR[Tle]-NH2
modifications: linker 1-4 via mXylyl
For the molecule B38, the “Avg. IC50” value worked out at 39.8 nM.

B39: R2155 (peptide)
peptide: [Mpa]SICRV-NH2
modifications: linker 1-4 via mXylyl
Consider B39, for which the “Avg. IC50” value turned out to be 66.3 nM.

B40: R2153 (peptide)
peptide: {des‑NH2}-C[Aib]A[Chg]CR-OH
modifications: linker 1-5 via mXylyl
With B40, the “Avg. IC50” value is greater than 8880 nM.

B41: R2168 (peptide)
peptide: [Mpa][Ac5c][Chg]CR[Tle]-NH2
modifications: linker 1-4 via mXylyl
For the molecule B41, the “Avg. IC50” value is 11.3 nM.

B42: R2179 (peptide)
peptide: [Mpa][Thp]A[Chg]C[3‑BZA]V-NH2
modifications: linker 1-5 via mXylyl; reading uncertain; also: printed as [mXylyl(1,5)](des-NH2)C-AcPyr-A-Chg-C-(3-BZA)-V-NH2
Consider B42, for which the “Avg. IC50” value is greater than 8230 nM.

B43: R2152 (peptide)
peptide: {des‑NH2}-C[Aib]A[Chg]CR-{3,3‑dimethylbutan‑2‑amine}
modifications: linker 1-5 via mXylyl
As to B43, the “Avg. IC50” value was 319 nM.

B44: R2177 (peptide)
peptide: [Mpa][Ac3c][Chg]CR[Tle]-NH2
modifications: linker 1-4 via mXylyl
Turning to B44, the “Avg. IC50” value came to 34.1 nM.

B45: R2161 (peptide)
peptide: [Mpa]SICRV-NH2
modifications: linker 1-4 via oXylyl
In the case of B45, the “Avg. IC50” value was 2230 nM.

B46: R2169 (peptide)
peptide: [Mpa][Ac5c]A[Chg]CR[Tle]-NH2
modifications: linker 1-5 via mXylyl
As for B46, the “Avg. IC50” value was 1.9 nM.

B47: R2163 (peptide)
peptide: MCESIC[NMeR]V-NH2
modifications: linker 2-6 via mXylyl
In the case of B47, the “Avg. IC50” value was 1960 nM.

B48: R2187 (peptide)
peptide: {des‑NH2}-CP[dPhg]CR[Tle]-NH2
modifications: linker 1-4 via mXylyl
Turning to B48, the “Avg. IC50” value is greater than 4700 nM.
